{"source": "paper PMC4331662", "target": "D. melanogaster cellular repressor of E1A-stimulated genes (dCREG), residues 24-212, produced in E. coli from pFO4/dCREG (D. melanogaster)", "experiment": "SEC; Superdex 75 HR 10/30, 50 mM sodium phosphate buffer pH 7.0, 150 mM NaCl, flow 0.5 ml/min, absorbance at 280 nm"}
{"substance": "D. melanogaster cellular repressor of E1A-stimulated genes (dCREG), residues 24-212, produced in E. coli from pFO4/dCREG (natural protein)", "values": [{"measurement": "stoichiometry N", "result": 2}]}
